# Measurements from patent publication US20220275083A1 (EUTILEX, published 2022).
# B1: bispecific epitope binding protein S08 (bispecific antibody)
# chain: FLESPDRPWNAPTFSPALLLVAEGDNATFTCSFSNASESFHVVWHRESPSGQTDTLAAFPEDRSQPGQDHRFRVTRLPNGRDFHMSVVRAQRNDSGTYVCGVISLAPKIQIKESLRAELRVTERRAEVPTAHPSPSPRPAGQFQTLVVGGGGGSGGGGSGGGGSFLESPDRPWNAPTFSPALLLVAEGDNATFTCSFSNASESFHVVWHRESPSGQTDTLAAFPEDRSQPGQDHRFRVTRLPNGRDFHMSVVRAQRNDSGTYVCGVISLAPKIQIKESLRAELRVTERRAEVPTAHPSPSPRPAGQFQTLVVGASGGGGSGGGGSDKTHTCPPCPAPEAAGGPSVFLFPPKPKDTLMISRTPEVTCVVVDVSHEDPEVKFNWYVDGVEVHNAKTKPREEQYNSTYRVVSVLTVLHQDWLNGKEYKCAVSNKALPAPIEKTISKAKGQPREPQVYTLPPSREEMTKNQVSLTCLVKGFYPSDIAVEWESNGQPENNYKTTPPVLDSDGSFFLYSKLTVDKSRWQQGNVFSCSVMHEALHNHYTQKSLSLSPGGGGGSGGGGSDIVMTQSPAFLSVTPGEKVTITCRASQTISDYLHWYQQKPDQAPKLLIKYASQSISGIPSRFSGSGSGTDFTFTISSLEAEDAATYYCQDGHSWPPTFGQGTKLEIKGSTSGSGKPGSGEGSTKGQVQLVQSGAEVKKPGASVKLSCKASGYTFSSYWMHWVRQAPGQGLEWIGEINPGNGHTNYNEKFKSRVTMTRDTSTSTAYMELSSLRSEDTAVYYCARSFKTARAFAYWGQGTLVTVSS
# notes: Anti-4-1BB 94kvt scFv x euPD-1 with hinge and engineered IgG1 Fc
# B2: bispecific epitope binding protein S09 (bispecific antibody)
# heavy: QVQLVQSGAEVKKPGASVKLSCKASGYTFSSYWMHWVRQAPGQGLEWIGEINPGNGHTNYNEKFKSRVTMTRDTSTSTAYMELSSLRSEDTAVYYCARSFKTARAFAYWGQGTLVTVSSASTKGPSVFPLAPSSKSTSGGTAALGCLVKDYFPEPVTVSWNSGALTSGVHTFPAVLQSSGLYSLSSVVTVPSSSLGTQTYICNVNHKPSNTKVDKKVEPKSCDKTHTCPPCPAPEAAGGPSVFLFPPKPKDTLMISRTPEVTCVVVDVSHEDPEVKFNWYVDGVEVHNAKTKPREEQYNSTYRVVSVLTVLHQDWLNGKEYKCAVSNKALPAPIEKTISKAKGQPREPQVYTLPPSREEMTKNQVSLTCLVKGFYPSDIAVEWESNGQPENNYKTTPPVLDSDGSFFLYSKLTVDKSRWQQGNVFSCSVMHEALHNHYTQKSLSLSPGGGGGSGGGGSFLESPDRPWNAPTFSPALLLVAEGDNATFTCSFSNASESFHVVWHRESPSGQTDTLAAFPEDRSQPGQDHRFRVTRLPNGRDFHMSVVRAQRNDSGTYVCGVISLAPKIQIKESLRAELRVTERRAEVPTAHPSPSPRPAGQFQTLVVG
# light: DIVMTQSPAFLSVTPGEKVTITCRASQTISDYLHWYQQKPDQAPKLLIKYASQSISGIPSRFSGSGSGTDFTFTISSLEAEDAATYYCQDGHSWPPTFGQGTKLEIKRTVAAPSVFIFPPSDEQLKSGTASVVCLLNNFYPREAKVQWKVDNALQSGNSQESVTEQDSKDSTYSLSSTLTLSKADYEKHKVYACEVTHQGLSSPVTKSFNRGEC
# notes: engineered IgG1 Fc; carries euPD-1
# B3: bispecific epitope binding protein S10 (bispecific antibody)
# heavy: QVQLVQSGAEVKKPGASVKLSCKASGYTFSSYWMHWVRQAPGQGLEWIGEINPGNGHTNYNEKFKSRVTMTRDTSTSTAYMELSSLRSEDTAVYYCARSFKTARAFAYWGQGTLVTVSSASTKGPSVFPLAPSSKSTSGGTAALGCLVKDYFPEPVTVSWNSGALTSGVHTFPAVLQSSGLYSLSSVVTVPSSSLGTQTYICNVNHKPSNTKVDKKVEPKSCDKTHTCPPCPAPEAAGGPSVFLFPPKPKDTLMISRTPEVTCVVVDVSHEDPEVKFNWYVDGVEVHNAKTKPREEQYNSTYRVVSVLTVLHQDWLNGKEYKCAVSNKALPAPIEKTISKAKGQPREPQVYTLPPSREEMTKNQVSLTCLVKGFYPSDIAVEWESNGQPENNYKTTPPVLDSDGSFFLYSKLTVDKSRWQQGNVFSCSVMHEALHNHYTQKSLSLSPGGSTSGSGKPGSGEGSTKGSFLESPDRPWNAPTFSPALLLVAEGDNATFTCSFSNASESFHVVWHRESPSGQTDTLAAFPEDRSQPGQDHRFRVTRLPNGRDFHMSVVRAQRNDSGTYVCGVISLAPKIQIKESLRAELRVTERRAEVPTAHPSPSPRPAGQFQTLVVG
# light: B2 light
# notes: as for B2
# Target: T1, PD-L1 antigen (SinoBiologics, Cat. No. 10084-H08H) (human, UniProt Q9NZQ7 19-238)
# T1 construct: Bought antigen; also called human PD-L1
# T1 sequence (Q9NZQ7 19-238 limits assumed): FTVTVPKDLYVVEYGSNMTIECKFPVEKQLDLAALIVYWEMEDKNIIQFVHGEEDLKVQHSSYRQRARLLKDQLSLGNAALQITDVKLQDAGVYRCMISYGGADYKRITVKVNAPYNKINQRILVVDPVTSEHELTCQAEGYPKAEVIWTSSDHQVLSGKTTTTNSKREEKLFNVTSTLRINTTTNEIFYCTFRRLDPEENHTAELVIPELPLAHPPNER
# Experiment: SPR, Biacore T200; variant captured on CM5, PD-L1 antigen injected
# Description: (§1) Affinity to 4-1BB was determined using the bispecific epitope binding protein variants diluted to 5 μg/ml and then fixed to CM5 chip (Cytiva, BR-1005-30) with human capture (Cytiva, Cat. No. BR-1008-39). The 4-1BB antigen (abclon) was injected at concentrations of 100, 50, 25, 12.5, 6.25, and 3.125 nM, the association time was set to 150 seconds, and the dissociation time was set to 240 seconds. Biacore T200 (cytiva) was used as the analysis equipment.
# Affinity to PD-L1 was determined using the bispecific epitope binding protein variants diluted to 10 μg/ml and then fixed to CM5 chip with human capture.
Kd [nM],koff [s⁻¹],kon [M⁻¹ s⁻¹],Binder
2.22,0.00186,837000,B1
6.26,0.00131,209000,B2
3.73,0.00141,377000,B3

# Target: T2, 4-1BB antigen (abclon) (UniProt Q07011 24-186)
# T2 construct: Bought antigen
# T2 sequence (Q07011 24-186): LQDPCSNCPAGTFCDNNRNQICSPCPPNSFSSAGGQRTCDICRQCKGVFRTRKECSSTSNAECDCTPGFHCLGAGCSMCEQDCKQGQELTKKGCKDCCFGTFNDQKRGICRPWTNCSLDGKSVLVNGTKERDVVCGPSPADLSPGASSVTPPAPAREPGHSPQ
# Experiment: SPR, Biacore T200; variant captured on CM5, 4-1BB antigen injected
# Description: as §1
Kd [nM],koff [s⁻¹],kon [M⁻¹ s⁻¹],Binder
6.83,0.000764,112000,B1
2.17,0.000568,261000,B2
2.3,0.000601,262000,B3
